Reference: US9675675B2, “Microneedle device having a peptide therapeutic agent and an amino acid, methods of making and using the same” (3M INNOVATIVE PROPERTIES COMPANY, priority 2011, dated 2017)

How the values were obtained:
[1] = Storage stability of insulin in dried coating on microneedle arrays, HPLC content; type: physicochemical; conditions: 5 mg/mL insulin in 0.1 N acetic acid, pH 3.0-3.5; for Percent of Initial Insulin Content in the Coating, Initial: freshly coated reference standard, about 4° C.; for Percent of Initial Insulin Content in the Coating, Day 1 / Percent of Initial Insulin Content in the Coating, Day 3 / Percent of Initial Insulin Content in the Coating, Day 7 / Percent of Initial Insulin Content in the Coating, Day 14: stored 40° C., 96% RH
Description: (§1) The protein or polypeptide content in the formulation coated on the microneedle arrays was determined using an Agilent 1100 HPLC system (Agilent Technologies, Wilmington, Del.) equipped with a binary pump, well-plated thermostated autosampler, thermostated column compartment, and a diode array UV detector. A Zorbax 300SB-C8 column (Agilent Technologies, Wilmington, Del.) having a 5 μm particle size and 2.1×150 mm inner diameter was used for the separations. The column was maintained at 50° C. The mobile phase consisted of two eluents. Eluent A was 0.1% TFA (trifluoroacetic acid) in water and eluent B was 0.1% TFA in acetonitrile (Spectrum Chemical, New Brunswick, N.J.). A linear gradient from 80/20 to 50/50 (A/B) was applied over 30 minutes. The flow rate was 0.4 mL/minute and the UV detection wavelength was set at 214 nm. The total run time was 34 minutes and the sample injection volume was 15 μL.
The pH of the sample formulation was 3.0-3.5. […] The pH of the control formulation was 3.0-3.5. Microneedle arrays were coated with either the sample or the control formulation. The coating was applied by dropwise addition of 50 μL of the formulation to the portion of the array defined by the octagon shaped pattern of microneedles. The flood coated arrays (both sample and control formulation coated) were dried in an oven at 35° C. for about 15 hours.
After drying, the coated arrays were placed in a storage chamber that was maintained at 40° C. and 96% relative humidity (RH). […] At the designated time point, an array was taken from the chamber and washed with 0.1 N acetic acid (1 mL) to remove the coating from the array. […] The arrays used as reference standards were stored in a refrigerator at about 4° C. and analyzed within one day of being prepared.
[…] The pH of the sample formulation was 3.0-3.5.

[2] = Storage stability of lysozyme in dried coating on microneedle arrays, HPLC content; type: physicochemical; conditions: 10 mg/mL lysozyme in PBS; for Percent of Initial Lysozyme Content in the Coating, Initial: freshly coated reference standard, about 4° C.; for Percent of Initial Lysozyme Content in the Coating, Day 1 / Percent of Initial Lysozyme Content in the Coating, Day 3 / Percent of Initial Lysozyme Content in the Coating, Day 7 / Percent of Initial Lysozyme Content in the Coating, Day 14: stored 40° C., 96% RH
Description: as §1
A sample formulation containing 10 mg/mL of lysozyme and 12 mg/mL of L-histidine monohydrochloride (His-HCl) in PBS was prepared. The pH of the sample formulation was 5.5-6.0. A control formulation was also prepared containing 10 mg/mL of lysozyme in PBS. […] The pH of the control formulation was 6.5. Microneedle arrays were coated with either the sample or the control formulation. The coating was applied by dropwise addition of 50 μL of the formulation to the portion of the array defined by the octagon shaped pattern of microneedles. The flood coated arrays (both sample and control formulation coated) were dried in an oven at 35° C. for about 15 hours.
After drying, the coated arrays were placed in a storage chamber that was maintained at 40° C. and 96% relative humidity (RH). The lysozyme content of the coated arrays was determined following storage in the chamber for 1, 3, 7, and 14 days. At the designated time point, an array was taken from the chamber and washed with PBS (2 mL) to remove the coating from the array. An aliquot of the resulting wash solution was analyzed for lysozyme content using the HPLC method described above. Reference standards were prepared by measuring the lysozyme content of freshly coated arrays (both sample and control formulation coated). The arrays used as reference standards were stored in a refrigerator at about 4° C. and analyzed within one day of being prepared. The percentage of undegraded lysozyme remaining in the coating at each time point was determined by measuring the peak area for lysozyme in the selected coating and dividing it by the peak area measured for lysozyme in the corresponding reference standard.
The same procedure as described in Example 7 was used with the exception that the sample formulation contained 12 mg/mL of L-arginine hydrochloride, instead of L-histidine monohydrochloride. The pH of the sample formulation was 6.5.

[3] = Amino acid: L-Arginine (12 mg/mL Arg-HCl)
[4] = Amino acid: L-Histidine (12 mg/mL His-HCl)
[5] = Amino acid: L-Arginine (12 mg/mL Arg-HCl), pH 6.5
[6] = Amino acid: L-Histidine (12 mg/mL His-HCl), pH 5.5-6.0
[7] = Amino acid: None (control), pH 6.5

For Insulin, the “Percent of Initial Insulin Content in the Coating, Initial” value [1, 3] was 100%, the “Percent of Initial Insulin Content in the Coating, Day 1” value [1, 3] was 75.4% and the “Percent of Initial Insulin Content in the Coating, Day 3” value [1, 3] was 45.9%. For the same substance, the “Percent of Initial Insulin Content in the Coating, Day 7” value [1, 3] was 27.1%, the “Percent of Initial Insulin Content in the Coating, Initial” value [1, 4] was 100% and the “Percent of Initial Insulin Content in the Coating, Day 1” value [1, 4] was 95.3%. For the same substance, the “Percent of Initial Insulin Content in the Coating, Day 3” value [1, 4] was 93.5%, the “Percent of Initial Insulin Content in the Coating, Day 7” value [1, 4] was 79.2% and the “Percent of Initial Insulin Content in the Coating, Day 14” value [1, 4] was 34.9%. The “Percent of Initial Insulin Content in the Coating, Initial” value ([1]; Amino acid: None (control)) was 100%, the “Percent of Initial Insulin Content in the Coating, Day 3” value ([1]; Amino acid: None (control)) was 0% and the “Percent of Initial Insulin Content in the Coating, Day 7” value ([1]; Amino acid: None (control)) was 0%. For the same substance, the “Percent of Initial Insulin Content in the Coating, Day 14” value ([1]; Amino acid: None (control)) was 0%.

For lysozyme, the “Percent of Initial Lysozyme Content in the Coating, Initial” value [2, 5] was 100%, the “Percent of Initial Lysozyme Content in the Coating, Day 1” value [2, 5] was 52.6% and the “Percent of Initial Lysozyme Content in the Coating, Day 3” value [2, 5] was 33.1%. For the same substance, the “Percent of Initial Lysozyme Content in the Coating, Day 7” value [2, 5] was 22.4%, the “Percent of Initial Lysozyme Content in the Coating, Day 14” value [2, 5] was 23.0% and the “Percent of Initial Lysozyme Content in the Coating, Initial” value [2, 6] was 100%. For the same substance, the “Percent of Initial Lysozyme Content in the Coating, Day 1” value [2, 6] was 100.0%, the “Percent of Initial Lysozyme Content in the Coating, Day 3” value [2, 6] was 80.6% and the “Percent of Initial Lysozyme Content in the Coating, Day 7” value [2, 6] was 60.1%. For the same substance, the “Percent of Initial Lysozyme Content in the Coating, Day 14” value [2, 6] was 53.3%, the “Percent of Initial Lysozyme Content in the Coating, Initial” value [2, 7] was 100% and the “Percent of Initial Lysozyme Content in the Coating, Day 1” value [2, 7] was 26.9%. The “Percent of Initial Lysozyme Content in the Coating, Day 3” value [2, 7] was 4.4%, the “Percent of Initial Lysozyme Content in the Coating, Day 7” value [2, 7] was 1.9% and the “Percent of Initial Lysozyme Content in the Coating, Day 14” value [2, 7] was 1.9%.
